Data on 4 molecules can be found in article PMC2175346.

Substitutions are numbered along the chain they refer to.

The target of series [1] is T1, I-PpoI (Physarum polycephalum, UniProt Q94702 1-163).
T1 sequence: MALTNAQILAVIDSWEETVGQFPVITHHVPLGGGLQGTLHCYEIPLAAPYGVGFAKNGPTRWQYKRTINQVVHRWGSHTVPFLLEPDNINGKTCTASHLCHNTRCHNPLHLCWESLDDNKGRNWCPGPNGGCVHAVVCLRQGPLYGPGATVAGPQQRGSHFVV
Put plainly: ITC.

Series [2] concerns the target T2, I-AniI (Aspergillus nidulans, UniProt P03880 237-488).
T2 sequence: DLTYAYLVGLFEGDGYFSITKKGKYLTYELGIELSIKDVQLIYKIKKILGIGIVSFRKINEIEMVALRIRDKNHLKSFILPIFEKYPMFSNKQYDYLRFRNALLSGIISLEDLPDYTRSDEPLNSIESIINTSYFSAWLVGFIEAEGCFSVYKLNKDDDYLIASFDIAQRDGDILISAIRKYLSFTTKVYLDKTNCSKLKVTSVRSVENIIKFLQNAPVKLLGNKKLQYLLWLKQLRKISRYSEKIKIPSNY
Nature of the series: ITC.

B1: I-PpoI LL palindrome (dsDNA)
DNA 1: GGGGGTGCAGTGACTCTCTTAAGAGAGTCAGACGTGGGGG
DNA 2: CCCCCACGTCTGACTCTCTTAAGAGAGTCACTGCACCCCC
B1 showed a Kd in series [1] of 87 ± 8.8 nM.

B2: I-PpoI RR palindrome (dsDNA)
DNA 1: GGGGGTGCAGTGGCTACCTTAAGGTAGCCAGACGTGGGGG
DNA 2: CCCCCACGTCTGGCTACCTTAAGGTAGCCACTGCACCCCC
As to B2, in series [1], the Kd worked out at 23 ± 1.6 nM.

B3: I-AniI WT site (dsDNA)
DNA 1: CCTTCCCTGAGGAGGTTTCTCTGTAAACCCTTCC
DNA 2: GGAAGGGTTTACAGAGAAACCTCCTCAGGGAAGG
In series [2], B3 returned a dissociation constant Kd of 96 ± 10 nM.

B4: I-AniI WT-OPT site (dsDNA)
DNA 1: B3 DNA 1 with T18A, A25T
DNA 2: B3 DNA 2 with T10A, A17T
Turning to B4, the Kd in series [2] stood at 8 ± 1 nM.
